This note sets out measurements from US20230277624A1 (ONCOSEC MEDICAL, published 2023).

Assay [1] deals with T1, Recombinant mouse CTLA-4/human IgG1 chimera (R&D Systems) (mouse; human, UniProt P09793 36-162, limits assumed).
T1 construct: Bought reagent, immobilised in 96-well plates; also called recombinant mCTLA-4/Fc; recombinant CTLA4 protein; not shown: human IgG1 portion (Fc) of the bought chimera
Kind of assay: ELISA; mouse CTLA-4/human IgG1 chimera coated at 1 or 5 µg/mL, HEK293 conditioned medium (168 ng/mL), anti-mouse IgG-HRP, OD 450 nm. As to the method:
(§1) Plasmid encoded anti-CTLA4 scFv bound to recombinant CTLA4 protein. Transfection-derived secreted anti-CTLA4 (scFv) were evaluated for their binding capacity to CTLA-4. Recombinant mouse CTLA-4/human IgG1 chimera (R&D Systems) were immobilized in 96-well plates (1 or 5 μg/mL, or […]) for 18 hr at room temperature. Wells were washed three times with 0.1% Tween in PBS and blocked with 1% BSA in PBS. Conditioned medium from HEK293 cells transfected with 9H10-scFv (168 ng/mL) or 9D9-scFv (130 ng/mL) was added to the wells, and incubated for 2 h at room temperature. Wells were washed three times, and anti-mouse IgG-horseradish peroxidase (Jackson ImmunoResearch, 0.2 μg/mL) were added and incubated for 1.5 hours at room temperature. Wells were again washed three times, developed with HRP Substrate Reagent (R&D Systems) and stopped with Stop Solution, 2N sulfuric acid (R&D Systems). Optical density of each well was measured at 450 nm.
For orientation: In an ELISA, binding on a coated surface is turned into a signal by an enzyme label.

Assay [2] concerns the target T1, Recombinant mouse CTLA-4/human IgG1 …. Kind of assay: ELISA; mouse CTLA-4/human IgG1 chimera coated at 1 or 5 µg/mL, HEK293 conditioned medium (130 ng/mL), anti-mouse IgG-HRP, OD 450 nm. The protocol: as §1

B1: Igκ-HA-9H10 VLC-Linker-9H10 VHC-Linker-mIgG1 Fc domain (anti-CTLA-4 scFv) (Fc fusion)
scFv: YPYDVPDYAGAQPARSDIVMTQSPSSLAVSVGEKVTISCKSSQSLLYGSSHYLAWYQQKVGQSPKLLIYWASTRHTGIPDRFIGSGSGTDFTLSLSSVQAEDMADYFCQQYFSTPWTFGAGTRVEIKSGSGGGSGGGSGGGSQVQLLQSESELVKPGASVKLSCKTSGYTFTDYYIHWVKQKPGQGLEWIGLINPNNDGTNYNQKFQGKATLTADKSSSTAYMELNSLTFDDSVIYFCARASSRLRMARTTSDYYAMDYWGQGIQVTVSSVDSSGSGGCKPCICTVPEVSSVFIFPPKPKDVLTITLTPKVTCVVVDISKDDPEVQFSWFVDDVEVHTAQTQPREEQFNSTFRSVSELPIMHQDWLNGKEFKCRVNSAAFPAPIEKTISKTKGRPKAPQVYTIPPPKEQMAKDKVSLTCMITDFFPEDITVEWQWNGQPAENYKNTQPIMDTDGSYFVYSKLNVQKSNWEAGNTFTCSVLHEGLHNHHTEKSLSHSPGK
notes: Secreted into the conditioned medium of transfected HEK293 cells (168 ng/mL) and used as such; also called 9H10-scFv; plasmid encoded anti-CTLA4 scFv
Turning to B1, the binding result in assay [1] is on record as “binds”.

B2: Igκ-HA-9D9 VLC-Linker-9D9 VHC-Linker-mIgG1 Fc domain (anti-CTLA-4 scFv) (Fc fusion)
scFv: YPYDVPDYAGAQPARSDIVMTQTTLSLPVSLGDQASISCRSSQSIVHSNGNTYLEWYLQKPGQSPKLLIYKVSNRFSGVPDRFSGSGSGTDFTLKISRVEAEDLGVYYCFQGSHVPYTFGGGTKLEIKRADAAPTVSGSGGGSGGGSGGGSEAKLQESGPVLVKPGASVKMSCKASGYTFTDYYMNWVKQSHGKSLEWIGVINPYNGDTSYNQKFKGKATLTVDKSSSTAYMELNSLTSEDSAVYYCARYYGSWFAYWGQGTLITVSTAKTTPPSVYPLAPVDSSGSGGCKPCICTVPEVSSVFIFPPKPKDVLTITLTPKVTCVVVDISKDDPEVQFSWFVDDVEVHTAQTQPREEQFNSTFRSVSELPIMHQDWLNGKEFKCRVNSAAFPAPIEKTISKTKGRPKAPQVYTIPPPKEQMAKDKVSLTCMITDFFPEDITVEWQWNGQPAENYKNTQPIMDTDGSYFVYSKLNVQKSNWEAGNTFTCSVLHEGLHNHHTEKSLSHSPGK
notes: Secreted into the conditioned medium of transfected HEK293 cells (130 ng/mL) and used as such; also called 9D9-scFv; plasmid encoded anti-CTLA4 scFv
Consider B2, for which, in assay [2], the binding result is “binds”.
